Values of other authors, collected in publication PMC4741949.
pKd: −log10 of the molar value.

Target: EGFR wild-type (human) (UniProt P00533)
Conditions: 2'F-pyrimidines (2'F-C, 2'F-U), RT-qPCR: 15 min 37 C, 100 ug/ml polyinosine, DPBS washes, flow cytometry: DPBS, 30 min, confocal: DMEM without FBS, UV cross-linking buffer not given

GCCUUAGUAACGUGCUUUGAUGUCGAUUCGACAGGAGGC [CL4]
pKd: 8.00
